Laboratory results as given in patent publication US7820412.

Test system: MutS (MBP-MutS-H6 fusion) (Thermus aquaticus)
Assay: pulldown
Conditions: MutS selectivity factor M estimated by model from consensus shuffling error rates; 20 mM Tris-HCl pH 7.8, 10 mM NaCl, 5 mM MgCl2, 1 mM DTT, 5% glycerol, room …

**Q.** “re-hybridized GFPuv fragments (average 150 bp) containing synthesis-error mismatches” was tested. Which binding signal (fold selectivity) did it give?
**A.** 2.2
